Experimental data taken from patent US20200055939A1 (Genentech, published 2020).
Values joined by “and” are separate entries in the source; they are usually repeats but may differ in a detail not shown here. Equal values may be shown once. Read-outs that look alike come from different tables or passages of the source.

T1: MICA.008.a3.T204-S297.E215N.mIgG2a.Glyco12 (human; mouse, UniProt Q29983 204-297, engineered N-linked glycosylation site E215N)
T1 construct: not shown: murine IgG2a Fc
T1 chain: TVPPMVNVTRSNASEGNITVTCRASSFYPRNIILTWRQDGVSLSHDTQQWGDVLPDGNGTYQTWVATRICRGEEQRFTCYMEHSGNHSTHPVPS

T2: MICA.008.a3.T204-S297.H248N.mIgG2a.Glyco15 (human; mouse, UniProt Q29983 204-297, engineered N-linked glycosylation site H248N)
T2 construct: not shown: murine IgG2a Fc
T2 chain: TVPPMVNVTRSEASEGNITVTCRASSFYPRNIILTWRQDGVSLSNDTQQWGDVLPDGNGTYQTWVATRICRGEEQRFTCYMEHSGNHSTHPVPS

T3: MICA.008.a3.T204-S297.C-terminal insert of N298.G299.S300.mIgG2a.Glyco17 (human; mouse, UniProt Q29983 204-297, engineered N-linked glycosylation site at inserted N298)
T3 construct: not shown: murine IgG2a Fc
T3 chain: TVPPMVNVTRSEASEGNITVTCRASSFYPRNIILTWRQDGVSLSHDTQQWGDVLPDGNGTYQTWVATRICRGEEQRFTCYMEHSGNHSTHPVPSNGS

T4: MICA.008.a3.R202-S297.R202N mIgG2a.Glyco11 (human; mouse, UniProt Q29983 203-297, engineered N-linked glycosylation site R202N)
T4 construct: not shown: murine IgG2a Fc
T4 chain: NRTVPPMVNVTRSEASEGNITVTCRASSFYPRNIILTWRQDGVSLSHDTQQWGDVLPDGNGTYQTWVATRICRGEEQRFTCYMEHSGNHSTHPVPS

T5: MICA.008.a3.T204-S297.I236T.mIgG2a.Glyco13 (human; mouse, UniProt Q29983 204-297, engineered N-linked glycosylation site created by I236T)
T5 construct: not shown: murine IgG2a Fc
T5 chain: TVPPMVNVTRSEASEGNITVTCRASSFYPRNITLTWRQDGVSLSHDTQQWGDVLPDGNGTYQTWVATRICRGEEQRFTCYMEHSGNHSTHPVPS

T6: MICA*008 on MEL-JUSO cells (human, UniProt Q29983 24-317)
T6 chain: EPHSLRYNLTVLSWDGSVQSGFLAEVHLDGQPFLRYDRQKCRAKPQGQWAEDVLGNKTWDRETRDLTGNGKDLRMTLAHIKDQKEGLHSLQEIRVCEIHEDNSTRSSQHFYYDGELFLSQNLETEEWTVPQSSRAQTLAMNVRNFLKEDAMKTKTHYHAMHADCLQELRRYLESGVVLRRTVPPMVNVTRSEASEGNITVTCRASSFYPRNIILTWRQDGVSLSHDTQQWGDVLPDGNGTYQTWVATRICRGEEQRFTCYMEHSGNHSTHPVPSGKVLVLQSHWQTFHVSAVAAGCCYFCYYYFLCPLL

T7: MICB*005 on HCC1534 cells (human, UniProt Q29980 23-383)
T7 sequence (looked up): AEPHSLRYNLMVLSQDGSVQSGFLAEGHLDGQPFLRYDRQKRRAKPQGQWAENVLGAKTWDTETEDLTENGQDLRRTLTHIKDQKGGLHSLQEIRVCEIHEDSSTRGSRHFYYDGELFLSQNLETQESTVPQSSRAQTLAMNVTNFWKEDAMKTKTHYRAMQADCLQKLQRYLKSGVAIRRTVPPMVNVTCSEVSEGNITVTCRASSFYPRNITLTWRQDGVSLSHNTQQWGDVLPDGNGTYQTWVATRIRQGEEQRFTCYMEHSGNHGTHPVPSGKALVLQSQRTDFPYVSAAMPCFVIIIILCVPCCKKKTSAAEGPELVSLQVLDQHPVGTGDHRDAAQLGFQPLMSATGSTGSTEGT

T8: MICA008.His (human MICA*008 alpha 3 domain, His tagged) (human)
T8 construct: Also used for FPOP (expressed in CHO); also called huMICA*008 alpha 3-his; MICA*008 a3
T8 chain: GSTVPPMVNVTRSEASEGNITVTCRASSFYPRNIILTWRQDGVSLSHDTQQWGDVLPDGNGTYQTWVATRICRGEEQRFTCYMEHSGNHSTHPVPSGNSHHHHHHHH

T9: MICA004.His (human MICA*004 alpha 3 domain, His tagged) (human)
T9 construct: also called huMICA*004 alpha 3-his
T9 chain: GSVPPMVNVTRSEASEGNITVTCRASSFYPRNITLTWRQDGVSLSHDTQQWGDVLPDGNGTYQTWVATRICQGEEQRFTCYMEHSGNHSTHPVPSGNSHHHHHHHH

T10: MICA002.His (human MICA*002 alpha 3 domain, His tagged) (human)
T10 construct: also called huMICA*002 alpha 3-his
T10 chain: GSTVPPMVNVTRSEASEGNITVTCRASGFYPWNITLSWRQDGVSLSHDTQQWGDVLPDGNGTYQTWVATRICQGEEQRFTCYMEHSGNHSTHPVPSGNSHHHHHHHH

T11: MICB005.His (human MICB*005 alpha 3 domain, His tagged) (human)
T11 construct: also called huMICB*005 alpha 3-his
T11 chain: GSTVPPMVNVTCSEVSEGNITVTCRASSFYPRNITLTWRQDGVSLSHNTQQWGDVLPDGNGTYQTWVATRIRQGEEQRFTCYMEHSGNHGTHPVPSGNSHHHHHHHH

T12: MICA.008.a3.T204-S297.G243N.mIgG2a.Glyco14 (human; mouse, UniProt Q29983 204-297, engineered N-linked glycosylation site G243N)
T12 construct: not shown: murine IgG2a Fc
T12 chain: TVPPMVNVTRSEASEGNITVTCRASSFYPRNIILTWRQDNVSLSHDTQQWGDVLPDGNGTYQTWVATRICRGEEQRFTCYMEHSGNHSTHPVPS


Experiments:
[1] = biological target: T13, MILL1-MICA chimera.murine IgG2a Fc fusion (mouse MILL1 with grafted human MICA*008 …); test: ELISA, coated chimera
T13 construct: MICA*008 residues around NGTYQT on the 'back' and in the beta2 microglobulin interface grafted onto murine MILL1; also called MILL1-MICA*008 chimera

[2] = biological target: T1, MICA.008.a3.T204-S297.E215N.mIgG2a.Glyco …; test: ELISA, coated variant;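 also: ELISA with plates coated at 2 ug/ml with MICA*008 alpha 3 glycosylation variants as murine IgG2a Fc fusions, antibody binding detected by HRP anti-human IgG Fc and TMB absorbance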
Method: (§1) Hybridoma derived clones binding to all four MICA/B alleles alpha 3 domains were tested by ELISA for binding to the MICA*008 alpha 3 glycosylation variants fused to murine IgG2a Fc fusion. Nunc maxisorp plates were coated with 2 ug/ml of glycosylation variants as previously described. Cloned and recombinantly expressed hybridoma monoclonal antibodies were added to the plates after blocking with a 1X PBS buffer containing 0.5% BSA and 0.05% Tween 20. After incubation, plates were washed multiple times with wash buffer (1X PBS containing 0.05% Tween 20) and secondary antibody (goat anti-human IgG Fc conjugated to HRP) was added. Plates were then washed multiple times with wash buffer again before adding either BioFX TMB Microwell 1 Component Peroxidase or tetramethylbenzidine (TMB) substrate (KPL; Gaithersburg, Md.). After several minutes of incubation, the reaction was stopped with BioFX stop solution or 1 N solution of HCl, respectively. Plates were read on a Spectra MAX 340 plate reader at either 630 or 450 nm respectively (Molecular Devices; Sunnyvale, Calif.).

[3] = biological target: T2, MICA.008.a3.T204-S297.H248N.mIgG2a.Glyco …; test: ELISA, coated variant;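 also: ELISA with plates coated at 2 ug/ml with MICA*008 alpha 3 glycosylation variants as murine IgG2a Fc fusions, antibody binding detected by HRP anti-human IgG Fc and TMB absorbance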
Method: as §1

[4] = biological target: T3, MICA.008.a3.T204-S297.C-terminal insert …; test: ELISA, coated variant;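 also: ELISA with plates coated at 2 ug/ml with MICA*008 alpha 3 glycosylation variants as murine IgG2a Fc fusions, antibody binding detected by HRP anti-human IgG Fc and TMB absorbance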
Method: as §1

[5] = biological target: T4, MICA.008.a3.R202-S297.R202N …; test: ELISA, coated variant;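 also: ELISA with plates coated at 2 ug/ml with MICA*008 alpha 3 glycosylation variants as murine IgG2a Fc fusions, antibody binding detected by HRP anti-human IgG Fc and TMB absorbance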
Method: as §1

[6] = biological target: T5, MICA.008.a3.T204-S297.I236T.mIgG2a.Glyco …; test: ELISA, coated variant
Method: as §1

[7] = biological target: T14, MICA*004 on HCC1534 cells (human, UniProt Q29983 24-383); test: cell-based or functional assay
[8] = biological target: T6, MICA*008 on MEL-JUSO cells; test: cell-based or functional assay
[9] = biological target: T7, MICB*005 on HCC1534 cells; test: cell-based or functional assay
[10] = biological target: MICA*002 on cells (PANC-1; B16-MICA002) (human, UniProt Q29983 24-383); test: cell-based or functional assay
[11] = biological target: T14, MICA*004 on HCC1534 cells; test: cell-based or functional assay; remark: listed apart in the source
[12] = biological target: T6, MICA*008 on MEL-JUSO cells; test: cell-based or functional assay
[13] = biological target: T7, MICB*005 on HCC1534 cells; test: cell-based or functional assay; remark: listed apart in the source
[14] = biological target: T14, MICA*004 on HCC1534 cells; test: cell-based or functional assay; remark: listed apart in the source
[15] = biological target: T6, MICA*008 on MEL-JUSO cells; test: cell-based or functional assay
[16] = biological target: T7, MICB*005 on HCC1534 cells; test: cell-based or functional assay; remark: listed apart in the source
[17] = biological target: T8, MICA008.His (human MICA*008 alpha 3 …); test: SPR, antibody captured;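 also: SPR with antibody held by surface-bound anti-Fc while His-tagged alpha three domains flow over, Kd derived by fitting a one-to-one binding model to sensograms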
Method: (§2) The binding kinetics of the anti-MICA/B antibodies were measured using surface plasmon resonance (SPR) on a Biacore T200 instrument (GE Healthcare). Anti-murine Fc or anti-human Fc (GE Healthcare) was immobilized on a CM5 sensor chip via amine-based coupling using manufacturer provided protocol. Anti-MICA/B antibody was captured by the anti- Fc and the MICA/B alleles were passed over. Antibody binding was measured to human MICA 002, 004, 008 and MICB 005 alpha 3 domains (His tagged, in-house). Sensograms for binding of MICA/B were recorded using an injection time of 2-3 minutes with a flow rate of 30 ml/min, at a temperature of 25° C., and with a running buffer of 10mM HEPES, pH 7.4, 150 mM NaCl, and 0.005% Tween 20. After injection, disassociation of the alpha 3 domain from the antibody was monitored for 10 minutes in running buffer. The surface was regenerated between binding cycles with a 60 ul injection of 10 mM Glycine HCl pH 1.7. […] The data was analyzed using a 1:1 binding model. Sensograms of MICA alleles binding to captured anti-MICA antibody were used to calculate the dissociation constant (Kd).

[18] = biological target: T9, MICA004.His (human MICA*004 alpha 3 …); test: SPR, antibody captured;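 also: SPR with antibody held by surface-bound anti-Fc while His-tagged alpha three domains flow over, Kd derived by fitting a one-to-one binding model to sensograms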
Method: as §2

[19] = biological target: T10, MICA002.His (human MICA*002 alpha 3 …); test: SPR, antibody captured;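 also: SPR with antibody held by surface-bound anti-Fc while His-tagged alpha three domains flow over, Kd derived by fitting a one-to-one binding model to sensograms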
Method: as §2

[20] = biological target: T11, MICB005.His (human MICB*005 alpha 3 …); test: SPR, antibody captured;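 also: SPR with antibody held by surface-bound anti-Fc while His-tagged alpha three domains flow over, Kd derived by fitting a one-to-one binding model to sensograms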
Method: as §2

[21] = biological target: T12, MICA.008.a3.T204-S297.G243N.mIgG2a.Glyco …; test: ELISA, coated variant
Method: as §1

[22] = biological target: T8, MICA008.His (human MICA*008 alpha 3 …); test: ELISA, coated antigen
[23] = biological target: T15, MICA.008.a3.T204-S297.E215N.G243N.H248N.R279N.C-terminal insert of N298.G299.S300.mIgG2a.Glyco4 … (human; mouse, engineered N-linked glycosylation sites E215N, G243N, H248N, R279N and inserted N298); test: ELISA, coated variant
T15 construct: not shown: murine IgG2a Fc

Binder | binding result [1] | binding result [2] | binding result [4] | binding result [5] | binding result [6] | % max inhibition of shedding [7] [%] | EC50 of shedding inhibition [7] | % max inhibition of shedding [8] [%] | EC50 of shedding inhibition [9] [µg/mL] | EC50 of shedding inhibition [13] [µg/mL] | Max % Inhibition of shedding [13] [%] | maximum inhibition of shedding [14] [%] | Kd [17] [nM] | Kd [18] [nM] | Kd [19] [nM] | Kd [20] [nM] | binding result [21] | binding result [22] | further results
7A3.1.9 (antibody, V domains shown, Mouse hybridoma antibody; constant regions differ by assay) VH: QVQLKESGPGLVAPSQSLSITCTVSGFALTGSGVNWVRQPPGKGLEWLGMIWGDGNTDYNSALKSRLSISKDNSKSQIFLKMNSLQTDDTARYYCARGAHYGKRWYFDVWGAGTTVTVSS VL: DIQMTQTTSSLSASLGDRVTISCSASQGINNYLNWYQQKPDGTVKLLIYYTSSLPSGVPSRFSGSGSGTDYSLTISNLEPEDIATYYCQQYSKLPPTFGGGTKVEIK | – | binds | binds | binds | binds | 50 | 0.411 µg/mL | < 10 | – | – | – | – | – | 8.7 | 22 | 16 | binds | binds | –
1E6.1.3 (antibody, V domains shown, Mouse hybridoma antibody; constant regions differ by assay) VH: QVQLKESGPGLVAPSQSLSITCTVSGFSLTGSGVNWVRQPPGQGLEWLGMIWGDGNTDYNSALKSRLSISKDNSKSQVFLKMNSLQTDDTARYYCARGAHYGKRWYFDVWGAGTTVTVSS VL: DIQMTQTTFSLSASLGDRVTISCSASQGINNYLNWYQQRPDGTVKLLIYYTSTLPSGVPSRFSGSGSGTDYSLTISNLEPEDIASYYCQQYSKLPPTFGGGTKVEIK | – | binds | binds | binds | binds | 46 | 0.681 µg/mL | 20 | – | – | – | – | – | 37 | 24 | 18 | binds | binds | –

Further binders by falling Kd [18], results first:

binding result [1] | binding result [2] | binding result [4] | binding result [5] | binding result [6] | % max inhibition of shedding [7] [%] | EC50 of shedding inhibition [7] | % max inhibition of shedding [8] [%] | EC50 of shedding inhibition [9] [µg/mL] | EC50 of shedding inhibition [13] [µg/mL] | Max % Inhibition of shedding [13] [%] | maximum inhibition of shedding [14] [%] | Kd [17] [nM] | Kd [18] [nM] | Kd [19] [nM] | Kd [20] [nM] | binding result [21] | binding result [22] | Binder | further results
binds | binds | – | binds | – | – | 0.265 µg/mL and 0.157 µg/mL | – | 0.0791 | 0.0724 | 58 | ~50 | 6.8 | 8.7 | 2.8 | 10 | – | – | 6E1.1.12 (antibody, V domains shown, Mouse hybridoma antibody; constant regions differ by assay) VH: QGQMQQSGAELVKPGASVKLSCKTSGFTFSDNYISWLKQKPGQSLEWIAWIYAGTGGSSYNQKFRDKAQLTVDTSSRTAYMQLSSLTTEDSAIYYCARHDYYGTSGAWFAYWGRGTLVTVSA VL: DVLMTQTPLSLPVSLGDQASISCRSSQHIVHSNENTYLEWYLQKPGQSPKLLIYKVSNRFSGVPDRFSGSGSGTDFTLKISRVEAEDLGVYYCFQGSHVPWTFGGGTKVEIK | binding result [23]: binds
binds | binds | binds | binds | binds | 66 | 0.166 µg/mL | 47 | 0.053 | 0.0349 | 76 | ~60 | 0.94 | 1.55 | 0.5 | 0.97 | – | – | 13A9 (antibody, V domains shown, Mouse variable domains; constant regions differ by assay) VH: QVQLQQSGAELVRPGTSVKVSCKASGYAFTNYLIEWVKQRPGQGLEWIGAINPGSGATNYNEKFKDKARLTADKSSNTAYLQFSSLTSDDSAVYFCARFLGNYFDNWGQGATLTVSS VL: DIQMTQSPASLSASVGETVTITCRASGNIHSYLAWYQQKQGKSPQLLVYYAETLADGVPSRFSGRGSGTQYSLKINSLQPEDFGSYFCQQFWTTPYTFGGGTKVEIK | binding result [3]: binds; EC50 of shedding inhibition [8]: 0.489 µg/mL; % max inhibition of shedding [9]: 79%; EC50 of shedding inhibition [10]: 0.418 µg/mL; Max % Inhibition of shedding [10]: 66%; EC50 of shedding inhibition [11]: 0.599 µg/mL; Max % Inhibition of shedding [11]: 56%; EC50 of shedding inhibition [12]: 0.794 µg/mL; Max % Inhibition of shedding [12]: 50%; maximum inhibition of shedding [15]: ~40%; maximum inhibition of shedding [16]: 75%
